Two substances from article PMC10403546 can be followed below.

Experiment [1] has as its target X16 UFO (CRF07_BC Env), uncleaved prefusion-optimized Env trimer of isolate BJOX016000.e15 (HIV-1). Description: cryo-EM structure.
Experiment [2] addresses X18 UFO (CRF01_AE Env), uncleaved prefusion-optimized Env trimer of isolate BJOX018000.e12 (HIV-1). Description: cryo-EM structure.
Experiment [3] has the same target. Put plainly: negative stain EM.

“X16 UFO (CRF07_BC Env), uncleaved prefusion-optimized Env trimer of isolate BJOX016000.e15 (natural protein)”: the stoichiometry N (in general, the number of molecules, sites or subunits per partner or assembly) in experiment [1] was found to be 3.

“X18 UFO (CRF01_AE Env), uncleaved prefusion-optimized Env trimer of isolate BJOX018000.e12 (natural protein)” registered a stoichiometry N in experiment [2] of 3. In addition, in experiment [3], the percentage of intact Env trimers, 8ANC195-bound, over 18 h was 90%; the percentage of intact Env trimers, F6-bound, 1 h is 83%; the percentage of intact Env trimers, F6-bound, 7 h was 48%.
